What was measured:
EGFP expression = test: GFP fluorescence of HEK 293 cells transfected with pEGFP riboswitch constructs, treated with guanine; format: cell-based; conditions: 500 μM guanine vs NaOH solvent control
Experimental: (§1) Transfection and aptamer ligand treatment: 3.5×10^4 HEK 293 cells were plated in a 96-well flat bottom plate the day before transfection. Plasmid DNA (500 ng) was added to a tube or a 96-well U-bottom plate. Separately, TransIT-293 reagent (Minis; 1.4 μl) was added to 50 μl opti-mem I media (Life Technologies), and allowed to sit for 5 minutes at room temperature (“RT”). Then, 50 μl of this diluted transfection reagent was added to the DNA, mixed, and incubated at RT for 20 min. Finally, 7 μl of this solution was added to a well of cells in a 96-well plate. Four hours after transfection, the media was aspirated, and new media was added with (i) DMSO (0.5%) or 500 μM guanosine; or (ii) NaOH (2 mM) as solvent control or 500 μM guanine. The induction fold was expressed as the quotient of luciferase activity obtained in the presence of aptamer ligand divided by the value obtained in the absence of the aptamer ligand.
Transfection and measurement of GFP fluorescence: 3.5×10^4 HEK 293 cells were plated in 96-well flat bottom plate the day before transfection. […] GFP fluorescence intensity was measured by Tecan plate reader, using Excitation wavelength at 484 nm, Emission wavelength at 510 nm and Excitation bandwidth at 5 nm. The GFP fluorescence intensity was expressed as the value generated by GFP constructs subtracted by the value generated by cells without transfection.

luciferase expression = test: Firefly luciferase assay of HEK 293 cells transfected with riboswitch constructs, treated with guanosine or guanine; format: cell-based; conditions: absence of guanine treatment
Experimental: as §1
Firefly luciferase assay of cultured cells: Twenty-four hours after media change, plates were removed from the incubator, and equilibrated to RT for several minutes on a lab bench, then aspirated. Glo-lysis buffer (Promega, […]) was added, and the plates allowed to remain at RT for at least 5 minutes. Then, the well contents were mixed by 50 μL trituration, and 20 μL of each sample was mixed with 20 μL of bright-glo reagent (Promega) that had been diluted to 10% in glo-lysis buffer. 96 wells were spaced on an opaque white 384-well plate. Following a 5-min incubation at RT, luminescence was measured using Tecan machine with 500 mSec read time. The luciferase activity was expressed as mean relative light unit (RLU)±S.D.

B1: ATA_Gua_2: SEQ ID NO: 2; xpt-guanine aptamer linked to 10 bp stem-loop embedding AATAAA; also used in pEGFP vector (nucleic acid)
DNA: AAGGCCAAGAAGGGCGGAAAGATCGCCGTGTAAGCCATACCACATTTGTAGAGGTTTTACTTGCTTTAAAAAACCTCCCACACCTCCCCCTGAACCTGAAACATAAAATGAATGCAATTGTTGTTGTTAACTTGTTTATTGCAGCTTATAATGGTTACAAATAAAGCAATAGCATCACAAATTTCACATAAAGCATAATCGCGTGGATATGGCACGCAAGTTTCTACCGGGCACCGTAAATGTCCGACTGCTTTATTTCGAAAGAAATAAAGCATTTTTTTCACTGCATTCTAGTTGTGGTTTGTCCAAACTCATCAATGTATCTTAACGCGT
EGFP expression
  fold increase in GFP expression on guanine treatment: 1.5 fold

B2: ATA_Gua_4: SEQ ID NO: 4; xpt-guanine aptamer linked to 14 bp stem-loop embedding AATAAA; also used in pEGFP vector (nucleic acid)
DNA: AAGGCCAAGAAGGGCGGAAAGATCGCCGTGTAAGCCATACCACATTTGTAGAGGTTTTACTTGCTTTAAAAAACCTCCCACACCTCCCCCTGAACCTGAAACATAAAATGAATGCAATTGTTGTTGTTAACTTGTTTATTGCAGCTTATAATGGTTACAAATAAAGCAATAGCATCACAAATTTTAAAGCAATAATCGCGTGGATATGGCACGCAAGTTTCTACCGGGCACCGTAAATGTCCGACTTGCTTTATTTGTGCGAAAGCACAAATAAAGCATTTTTTTCACTGCATTCTAGTTGTGGTTTGTCCAAACTCATCAATGTATCTTAACGCGT
Luciferase expression
  basal level luciferase expression, % of the pFLuc control vector: 16%
EGFP expression
  fold increase in GFP expression on guanine treatment: 1.6 fold
